Assay: yeast display, Sf9 membrane polyspecificity reagent, FACS + sequencing; frameworks hold sequencing errors
Procedure, shortened: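 In a synthetic yeast display library (Saccharomyces cerevisiae BJ5465), nanobody expression was induced with galactose for 36–48 hours. FACS gates were set low and high (top ~1%) using anti-HA fluorescence for expression and streptavidin fluorescence for binding of the Sf9 membrane reagent. Each polyreactivity label is drawn from the gate of origin.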

| Sequence | polyreactivity (PSR sort gate) |
| --- | --- |
| QVQLEESGGGLVQAGGSLRLSCAASGSIFWLYAMGWYRQAPGKEREFVAAITTSGSSTRYADSVKGRFTISRDNAKNTVYVQMNSLKPEDTAVYYCAARNRTFFQPTYYYWGQGTQVTVSS | high polyreactivity |
| QVQLEESGGGLVQAGGSLRLSCAASGSIFYKYAMGWYRQAPGKEREFVATIRYSGGSTYYADSVKGRFTISRDNAKNTVYLQMNILKPEDTAVFYCAADAYSYGYDSWGQGTQVTVSS | high polyreactivity |
| QVQLEESGGGLVQAGGSLRLSCAASGSTFAVYAMGWYRQAPGKERELVAAINRSGDSTYYADSVKGRFTISRDNAKNTVYLQMNSLKPEDTAVYYCAAYQRVRSGVDMYSWGQGTQVTVSS | high polyreactivity |
| QVQLEESGGGLVQAGGSLRLSCAASGSTFDTYAMGWYRPAPGKERELVAGITRRGGRTYYADSVKGRFTISRDTAKNTVYLQKYSLKPEDTAVYYCNAVPQRPVGKRDHWGQGTQVTVSS | high polyreactivity |
| QVQLEESGGGLVQAGGSLRLSCAASGSTFEYKAKGWYRQAPGKERELVASSTNYADSVKGRFTISRDNAKNTVYLQMNSLKPEDTAVYYCAREQGVNRNHDYWGQGTQVTVSS | low polyreactivity |
| QVQLEESGGGLVQAGGSLRLSCAASGSTFFIYAMGWYRQAPGKEREMVAAISGSGGTTYYADSVKGRFTISRDNAKNTVYLQMNSLKPEDTAVYYCAARTFSAFWRGGYDYWGQGTQVTVSS | low polyreactivity |
| QVQLEESGGGLVQAGGSLRLSCAASGSTFHGYAMGWYRQEPGKERELVAAITSGDSTNYADSVKGRFTISRDNAKNTVYLQMNSLKPEDTAVYYCNAEGSSVLTGYWGYPPYWDTYDYWGQGTQVTVSS | low polyreactivity |
| QVQLEESGGGLVQAGGSLRLSCAASGSTFKYYAMGWYRQAHGKERELVAAISRRGGSTYYADSVKGRFTISRDNAKNTVYLQMNSLKPEDTAVYYCAADIIRPVTVDYWGQGTQVTVSS | high polyreactivity |
| QVQLEESGGGLVQAGGSLRLSCAASGSTFQENAMGWYRQAPGKEREFVAAISGSGGSTYYADSVKGRFTISRDNAKNTVYLQMNSLKPEDTAVYYCAARHYFRSRRRYDYWGQGTQVTVSS | low polyreactivity |
| QVQLEESGGGLVQAGGSLRLSCAASGSTFRYYAMGWYRQAPGKERELVAAISRSGGRTYYADSVKGRFTISRDNAKNTVYLQMNSLKPEDTAVYYCATRGDGSSWGDYDYWGQGTQVTVSS | high polyreactivity |
| QVQLEESGGGLVQAGGSLRLSCAASGSTFSYNTMGWYRQAPGKERELVASITWSGGSTNYADSVKGRFTISRDNAKNTVYLQMNSLKPEDTAVYYCAKDYISVWNVRASDYYWYDYWGQGTQVTVSS | low polyreactivity |
| QVQLEESGGGLVQAGGSLRLSCAASGSTFVYYAMGWYRQSPGKERELVAAISRGGGSTYYADSVKGRFTISRDNAKNTVYLQMNSLKPEDTAVYYCAAVAGYRYYWGQGTQVTVSS | high polyreactivity |
| QVQLEESGGGLVQAGGSLRLSCAASGSTFVYYPMGWYRQATGKERELVAVISDDGGTYYADSVKGRFTISRDNAKNTVYLQMNSLKPEDTAVFYCAKDYYGGAFYWYNDRSGDYWGQGTQVTVSS | low polyreactivity |
| QVQLEESGGGLVQAGGSLRLSCAASGSTYACYYMGWYIQAPGTEREFVAAIDYGGGSTYADSVQGRFTISRDNAKITVYLQMNSLKPEDTAVYYCYADNWVYLYVYWGQGTQVTVSS | low polyreactivity |
| QVQLEESGGGLVQAGGSLRLSCAASGYIFYEYAMGWYRQAPGKERELVAAISRRGGRTYYADSVKGRFTISRDNAKNTVYLQMHSLKPEDTAVYYCAASVRFGDYEYWGQGTQVTVSS | high polyreactivity |
| QVQLEESGGGLVQAGGSLRLSCAASGYTFFTNVMGWYRQAPGKERELVATITTGGSTYADSVKGRFTISRDNAKNTVYLQMNSLKPEDTAVYYCAVDALTGAWLGGYPYWADGYDYWGQGTQVTVSS | low polyreactivity |
| QVQLEESGGGLVQAGGSLRLSCAASGYTFGLYAMGWYRQAPRKERELVAAISSDASTNYADSVKGRFTISRDNAKNTVYLQMNSLKPEDTAVYYCAAAVKRGYAQSFISDGYGYWGQGTQVTVSS | low polyreactivity |
